Patent publication CN117327176A (NANJING RONGJIEKANG BIOTECHNOLOGY CO LTD, dated 2024)
Substitutions are numbered along the chain they refer to.

B1: 单域抗体 1F9 (VHH, E. coli crude extract) (VHH)
VHH: ESGGGSVQAGGSLRLSCATSRYTYNCMGWFRQSPGKEREQVAGIAMGVVTYYADSVKGRFTISQDNGKNTVDLQMDNLKPEDTAMYYCAAGPAHYKCYSPSGGRYNYWGQGTQVTVSS
notes: Expressed from pMECS in E. coli and detected through an HA tag
B2: 单域抗体 1H5 (VHH, E. coli crude extract) (VHH)
VHH: B1 VHH with S6L, A9P
notes: as for B1
B3: 单域抗体 4A1 (VHH, E. coli crude extract) (VHH)
VHH: B1 VHH with A90S, A93P, P100A
notes: as for B1
B4: 单域抗体 1B7 (VHH, E. coli crude extract) (VHH)
VHH: ESGGGSVQAGGSLRLSCTTSGYTYSSNCIGWFRQAPGKEREEIATISRVGEITFYADSVKGRFTISQDNTETTVFLQMNSLKPEDTAVYYCAASPPTYGGCPTRSRDYDKWGQGTQVTVSS
notes: as for B1
B5: 单域抗体 23G12 (VHH, E. coli crude extract) (VHH)
VHH: ESGGGSVQAGGSLRLSCATSRFTYGSACMGWFRQSPGKEREQVAGIAMGVVTYYADSVKGRFTISQDNGKNTVDLQMDNLKPEDTAMYYCATGPAHYKCYSASGGRYNYWGQGTQVTVSS
notes: as for B1
B6: 单域抗体 2G5 (VHH, E. coli crude extract) (VHH)
VHH: B5 VHH with K98N
notes: as for B1
B7: 单域抗体 2D10 (VHH, E. coli crude extract) (VHH)
VHH: B5 VHH with E83D
notes: as for B1
B8: 单域抗体 1A6 (VHH, E. coli crude extract) (VHH)
VHH: B5 VHH with F22Y, A27S, G30A, T92A, A95P, A102V
notes: as for B1
B9: 单域抗体 1D1 (VHH, E. coli crude extract) (VHH)
VHH: B5 VHH with A9V, N108S, Y109D
notes: as for B1
B10: 单域抗体 1A7 (VHH, E. coli crude extract) (VHH)
VHH: B5 VHH with S20P, F22Y, S26T, A27S, K38Y, E39Q, T92A
notes: as for B1
B11: 单域抗体 4F3 (VHH, E. coli crude extract) (VHH)
VHH: B5 VHH with F22Y, A27S, G69N, T92S, A95P
notes: as for B1
B12: 单域抗体 4B2 (VHH, E. coli crude extract) (VHH)
VHH: B5 VHH with F22Y, T92A, K98L, N108T, Y109S
notes: as for B1
B13: 单域抗体 214D11 (VHH, E. coli crude extract) (VHH)
VHH: B5 VHH with N108D, Y109A
notes: as for B1
B14: 单域抗体 21H6 (VHH, E. coli crude extract) (VHH)
VHH: B5 VHH with F22W, S26T, K59E, G69E
notes: as for B1
B15: 单域抗体 27H4 (VHH, E. coli crude extract) (VHH)
VHH: B5 VHH with Q34H, S35A, A102P
notes: as for B1
B16: 单域抗体 1F3 (VHH, E. coli crude extract) (VHH)
VHH: ESGGGSVQAGGSLRLSCATSTSRFTYGSACMGWFRQSPGKEREQVAGIAMGVVTYYADSVKGRFTISQDNGKNTVDLQMDNLKPEDTAMYYCAAGPAHYNCYSASGGRYNYWGQGTQVTVSS
notes: as for B1
B17: 单域抗体 2H3 (VHH, E. coli crude extract) (VHH)
VHH: B16 VHH with N100K, Y111I
notes: as for B1
B18: 单域抗体 212C7 (VHH, E. coli crude extract) (VHH)
VHH: B16 VHH with S6L, A9P
notes: as for B1

The binders below were run against T1, 人源TSLP蛋白 (Thymic stromal lymphopoietin) (human, UniProt Q969D9 29-159) (assay: ELISA of E. coli crude extract on coated TSLP, anti-HA HRP; positive if OD more than 5 times the control well).
T1 construct: also called 人源重组TSLP蛋白; TSLP重组蛋白
B1: binds. B2: binds. B3: binds. B4: binds. B5: binds. B6: binds. B7: binds. B8: binds. B9: binds. B10: binds. B11: binds. B12: binds. B13: binds. B14: binds. B15: binds. B16: binds. B17: binds. B18: binds.
